Several values for one entry are separate records, joined by “and”; a condition that tells them apart may be missing. Equal entries are not always repeated.
Legend:
[1] = biological target: TRF2/His6MBP-Rap1 complex (human) (UniProt Q9NYB0); assay: pull-down + other: mass photometry
TRF1 (human) [2] = biological target: TRF1 (human) (UniProt P54274); assay: mass photometry
TPP1 (human) = assay: native MS
[3] = biological target: TRF2/Rap1 complex (human) (UniProt Q9NYB0); assay: co-sedimentation + other: mass photometry
TRF1 (human) [4] = biological target: TRF1 (human) (UniProt P54274); assay: native MS
Target sequence in this assay (P54274 whole entry): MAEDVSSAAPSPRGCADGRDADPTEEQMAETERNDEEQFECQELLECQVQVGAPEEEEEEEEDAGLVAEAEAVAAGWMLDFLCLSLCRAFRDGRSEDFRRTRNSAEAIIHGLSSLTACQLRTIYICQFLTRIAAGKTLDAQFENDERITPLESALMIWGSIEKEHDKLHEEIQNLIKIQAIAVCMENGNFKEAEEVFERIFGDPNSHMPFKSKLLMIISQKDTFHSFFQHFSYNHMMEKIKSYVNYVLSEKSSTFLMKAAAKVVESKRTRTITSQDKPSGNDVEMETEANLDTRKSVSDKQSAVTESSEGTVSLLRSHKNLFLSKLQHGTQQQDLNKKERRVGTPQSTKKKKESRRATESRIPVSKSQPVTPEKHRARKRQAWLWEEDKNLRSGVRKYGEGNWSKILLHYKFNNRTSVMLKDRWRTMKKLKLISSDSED

POT1 (human) = POT1 (human) (UniProt Q9NUX5); assay: native MS
POT1;TPP1N [5] = biological target: T1, POT1;TPP1N (human;human, UniProt Q9NUX5;Q96AP0 1-634;1-251, |); assay: size-exclusion chromatography and negative-stain EM
POT1;TPP1;GFP-TIN2 = POT1;TPP1;GFP-TIN2 (human;human;human, UniProt Q9NUX5;Q96AP0;Q9BSI4-2 1-634;1-458;1-352, ||); assay: negative-stain EM
POT1;TPP1N [6] = biological target: T1, POT1;TPP1N; assay: negative-stain EM

TRF2/Rap1 complex (human), sequence (Q9NYB0 whole entry, looked up, one chain of several): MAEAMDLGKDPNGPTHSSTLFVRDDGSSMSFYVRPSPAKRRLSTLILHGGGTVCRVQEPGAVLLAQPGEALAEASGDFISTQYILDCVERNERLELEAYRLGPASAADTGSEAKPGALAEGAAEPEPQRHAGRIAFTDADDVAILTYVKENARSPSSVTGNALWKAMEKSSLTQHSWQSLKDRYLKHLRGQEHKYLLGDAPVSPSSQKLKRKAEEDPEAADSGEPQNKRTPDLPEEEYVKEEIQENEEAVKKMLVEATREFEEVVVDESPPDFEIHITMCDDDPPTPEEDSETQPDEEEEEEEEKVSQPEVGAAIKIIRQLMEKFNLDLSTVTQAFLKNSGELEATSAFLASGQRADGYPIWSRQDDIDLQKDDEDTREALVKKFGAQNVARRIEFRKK
POT1/TPP1/GFP-TIN2 complex, sequence (Q9NUX5 whole entry, looked up, one chain of several): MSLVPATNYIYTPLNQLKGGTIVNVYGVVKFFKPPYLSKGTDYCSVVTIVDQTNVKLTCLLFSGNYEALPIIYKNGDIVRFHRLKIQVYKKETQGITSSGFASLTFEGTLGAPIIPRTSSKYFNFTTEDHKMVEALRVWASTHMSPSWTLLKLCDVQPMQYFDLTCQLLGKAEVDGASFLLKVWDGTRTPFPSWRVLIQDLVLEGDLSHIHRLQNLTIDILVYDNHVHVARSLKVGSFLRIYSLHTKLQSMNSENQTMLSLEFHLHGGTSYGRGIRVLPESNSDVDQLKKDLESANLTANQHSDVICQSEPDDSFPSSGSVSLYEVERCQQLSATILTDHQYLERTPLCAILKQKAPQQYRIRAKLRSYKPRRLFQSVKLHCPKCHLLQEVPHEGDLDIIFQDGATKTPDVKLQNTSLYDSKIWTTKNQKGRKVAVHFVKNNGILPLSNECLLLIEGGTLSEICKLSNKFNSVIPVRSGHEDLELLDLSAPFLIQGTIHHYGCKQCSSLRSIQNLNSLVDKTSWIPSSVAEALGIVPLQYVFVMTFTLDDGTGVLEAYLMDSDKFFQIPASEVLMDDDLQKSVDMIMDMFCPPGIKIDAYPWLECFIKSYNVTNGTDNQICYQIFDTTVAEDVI
GFP-TIN2 (natural protein), sequence (Q9BSI4 2-451): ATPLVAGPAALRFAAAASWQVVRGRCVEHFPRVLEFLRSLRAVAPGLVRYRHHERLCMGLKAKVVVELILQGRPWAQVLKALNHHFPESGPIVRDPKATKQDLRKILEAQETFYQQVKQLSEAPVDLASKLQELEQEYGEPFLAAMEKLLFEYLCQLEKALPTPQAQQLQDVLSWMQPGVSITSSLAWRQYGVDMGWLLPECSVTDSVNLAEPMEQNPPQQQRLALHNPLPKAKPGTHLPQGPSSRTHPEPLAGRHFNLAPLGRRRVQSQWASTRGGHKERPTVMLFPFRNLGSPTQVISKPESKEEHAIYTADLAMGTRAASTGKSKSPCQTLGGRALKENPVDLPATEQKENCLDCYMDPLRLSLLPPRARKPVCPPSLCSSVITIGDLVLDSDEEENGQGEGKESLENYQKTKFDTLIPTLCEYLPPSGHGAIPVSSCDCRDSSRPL
T1 sequence (Q9NUX5 whole entry, chain 1 of 2): as the sequence (Q9NUX5 whole entry, looked up, one chain of several) above
T1 sequence (Q96AP0 1-251, chain 2 of 2): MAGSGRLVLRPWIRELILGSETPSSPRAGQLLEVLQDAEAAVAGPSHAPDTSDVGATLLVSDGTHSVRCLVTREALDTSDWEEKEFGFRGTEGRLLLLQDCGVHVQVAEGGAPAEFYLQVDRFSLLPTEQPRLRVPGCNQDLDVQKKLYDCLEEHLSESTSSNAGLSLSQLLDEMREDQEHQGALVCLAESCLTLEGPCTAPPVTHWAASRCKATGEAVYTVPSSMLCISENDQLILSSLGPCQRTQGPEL
TRF1, sequence (P54274 2-439): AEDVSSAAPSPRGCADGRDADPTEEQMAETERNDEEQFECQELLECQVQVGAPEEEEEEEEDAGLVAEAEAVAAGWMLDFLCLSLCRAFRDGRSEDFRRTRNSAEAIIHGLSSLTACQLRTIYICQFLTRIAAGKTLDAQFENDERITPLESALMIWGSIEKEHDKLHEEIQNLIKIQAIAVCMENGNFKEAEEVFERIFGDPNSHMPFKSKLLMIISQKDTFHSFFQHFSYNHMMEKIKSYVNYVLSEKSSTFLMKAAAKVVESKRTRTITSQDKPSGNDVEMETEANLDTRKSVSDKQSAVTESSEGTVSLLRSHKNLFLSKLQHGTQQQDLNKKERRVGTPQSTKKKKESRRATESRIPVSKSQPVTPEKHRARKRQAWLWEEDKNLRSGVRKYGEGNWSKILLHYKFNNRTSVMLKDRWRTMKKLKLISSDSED
TRF2/His6MBP-Rap1 complex (human), sequence (Q9NYB0 whole entry, looked up, one chain of several): as the sequence (Q9NYB0 whole entry, looked up, one chain of several) above
TPP1 (human), sequence (Q96AP0 whole entry): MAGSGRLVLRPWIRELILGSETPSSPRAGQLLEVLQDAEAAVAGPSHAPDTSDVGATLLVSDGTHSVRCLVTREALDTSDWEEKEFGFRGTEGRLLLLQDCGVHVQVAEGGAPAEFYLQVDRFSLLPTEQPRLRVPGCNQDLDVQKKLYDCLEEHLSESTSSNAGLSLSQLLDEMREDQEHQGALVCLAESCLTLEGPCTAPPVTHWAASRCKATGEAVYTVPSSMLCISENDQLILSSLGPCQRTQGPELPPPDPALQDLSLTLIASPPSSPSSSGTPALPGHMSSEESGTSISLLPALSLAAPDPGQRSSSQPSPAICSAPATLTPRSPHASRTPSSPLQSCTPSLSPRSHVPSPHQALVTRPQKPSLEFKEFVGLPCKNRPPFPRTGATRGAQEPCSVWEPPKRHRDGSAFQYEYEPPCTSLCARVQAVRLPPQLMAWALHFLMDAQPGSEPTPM
TPP1 (natural protein), sequence (Q96AP0 whole entry): as above
POT1/TPP1/GFP-TIN2/TRF1 complex, sequence (P54274 whole entry, looked up): as the sequence (P54274 whole entry) above
POT1/TPP1/GFP-TIN2/TRF1 complex, sequence (Q9NUX5 whole entry, looked up): as the sequence (Q9NUX5 whole entry, looked up, one chain of several) above
TRF1/GFP-TIN2 complex, sequence (P54274 whole entry): as the sequence (P54274 whole entry) above
TRF1/GFP-TIN2 complex, sequence (Q9BSI4 1-352): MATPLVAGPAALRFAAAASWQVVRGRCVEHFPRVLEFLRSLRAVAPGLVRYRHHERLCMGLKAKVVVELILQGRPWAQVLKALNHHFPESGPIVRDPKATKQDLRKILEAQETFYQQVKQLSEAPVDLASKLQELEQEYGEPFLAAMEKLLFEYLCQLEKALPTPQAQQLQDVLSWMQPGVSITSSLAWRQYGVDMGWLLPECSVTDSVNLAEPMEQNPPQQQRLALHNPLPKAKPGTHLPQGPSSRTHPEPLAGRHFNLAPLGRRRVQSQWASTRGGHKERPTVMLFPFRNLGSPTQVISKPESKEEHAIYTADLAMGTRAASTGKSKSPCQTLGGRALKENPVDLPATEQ
POT1;TPP1;GFP-TIN2, sequence (Q9NUX5 whole entry, chain 1 of 3): as the sequence (Q9NUX5 whole entry, looked up, one chain of several) above
POT1;TPP1;GFP-TIN2, sequence (Q96AP0 whole entry, chain 2 of 3): as the sequence (Q96AP0 whole entry) above
POT1;TPP1;GFP-TIN2, sequence (Q9BSI4 1-352, chain 3 of 3): as the sequence (Q9BSI4 1-352) above
POT1 (human), sequence (Q9NUX5 whole entry): as the sequence (Q9NUX5 whole entry, looked up, one chain of several) above

## POT1/TPP1/GFP-TIN2/TRF1 complex (from UniProt Q9NUX5;P54274)
[1]
  stoichiometry N: 1

## TRF1 (from UniProt P54274 1-439) (natural protein)
TRF1 (human) [2]
  stoichiometry N: 2

## GFP-TIN2 (natural protein)
TRF1 (human) [2]
  stoichiometry N (TIN2 per TRF1 dimer): 2
TPP1 (human)
  stoichiometry N (TIN2 per TPP1): 1

## POT1/TPP1/GFP-TIN2 complex (from UniProt Q9NUX5 1-634)
TRF1 (human) [2]
  stoichiometry N (POT1/TPP1/GFP-TIN2 per TRF1 dimer): 1 and 2
[3]
  stoichiometry N (POT1/TPP1/TIN2 per (TRF2/Rap1)2): 1 and 2
TRF1 (human) [4]
  stoichiometry N (POT1/TPP1/GFP-TIN2 per TRF1 dimer): 1 and 2

## TPP1 (natural protein)
POT1 (human)
  stoichiometry N (TPP1 per POT1): 1

## TRF1/GFP-TIN2 complex (from UniProt P54274;Q9BSI4)
[3]
  stoichiometry N ((TRF1/GFP-TIN2)2 per (TRF2/Rap1)2): 1

## GGTTAGGGTTAG (ssDNA) [5'-biotin-(GGTTAG)2]
POT1;TPP1N [5]
  binding result: binds

## GGTTAGGGTTAGGGTTAGGGTTAG (ssDNA) [5'-biotin-(GGTTAG)4]
POT1;TPP1;GFP-TIN2
  binding result: binds
POT1;TPP1N [6]
  binding result: binds

Reference: PMC9351484
